For the test, the target named is ROR1 on Jeko-1 cells (UniProt Q01973 30-937, limits assumed). Description: cell-based or functional assay.

B1: NVG-111 (bispecific antibody)
chain: QVQLVESGGGVVQPGRSLRLSCAASGFIFSEHNMAWVRQAPGKGLEWVATISDDGRNTYYRDSMRGRFTISRDNSKNTLYLQMNSLRAEDTAVYYCTSHRYNLFDSWGQGTMVTVSSGGGGSGGGGSGGGGSDIQMTQSPSSLSASVGDRVTITCKASQNIDRYLNWYQQKPGKAPKRLIYNTNKLQTGVPSRFSGSGSGTEFTLTISSLQPEDFATYYCLQYNSLPLTFGQGTKLEIKSGSGGGGSQVQLVQSGAEVKKPGSSVKVSCKASGYTFTRYTMHWVRQAPGQGLEWMGYINPSRGYTNYNQKFKDRVTITADKSTSTAYMELSSLRSEDTAVYYCARYYDDHYCLDYWGQGTMVTVSSVEGGSGGSGGSGGSGGVDDIQMTQSPSSLSASVGDRVTITCSASSSVSYMNWYQQKPGKAPKRLIYDTSKLASGVPSRFSGSGSGTEFTLTISSLQPEDFATYYCQQWSSNPFTFGQGTKVEIKHHHHHH
Take B1: the “maximum target cell death, long-term (120 h) killing assay, 1 µg/mL, 1:10 effector to target ratio” value (from here on “maximum target cell death … to target ratio”) is 60.5%.

B2: AR_TCE-1 (bispecific antibody)
chain: QVQLVESGGGVVQPGRSLRLSCAASGFIFSEHNMAWVRQAPGKGLEWVATISDDGRNTYYRDSMRGRFTISRDNSKNTLYLQMNSLRAEDTAVYYCTSHRYNLFDSWGQGTMVTVSSGGGGSGGGGSGGGGSDIQMTQSPSSLSASVGDRVTITCKASQNIDRYLNWYQQKPGKAPKRLIYNTNKLQTGVPSRFSGSGSGTEFTLTISSLQPEDFATYYCLQYNSLPLTFGQGTKLEIKSGGGGSIEPDSESQGGGGSQVQLVQSGAEVKKPGSSVKVSCKASGYTFTRYTMHWVRQAPGQGLEWMGYINPSRGYTNYNQKFKDRVTITADKSTSTAYMELSSLRSEDTAVYYCARYYDDHYCLDYWGQGTMVTVSSVEGGSGGSGGSGGSGGVDDIQMTQSPSSLSASVGDRVTITCSASSSVSYMNWYQQKPGKAPKRLIYDTSKLASGVPSRFSGSGSGTEFTLTISSLQPEDFATYYCQQWSSNPFTFGQGTKVEIKHHHHHH
With B2, the “maximum target cell death … to target ratio” value was 58.7%.

B3: AR_TCE-3 (bispecific antibody)
chain: QVQLVESGGGVVQPGRSLRLSCAASGFIFSEHNMAWVRQAPGKGLEWVATISDDGRNTYYRDSMRGRFTISRDNSKNTLYLQMNSLRAEDTAVYYCTSHRYNLFDSWGQGTMVTVSSGGGGSGGGGSGGGGSDIQMTQSPSSLSASVGDRVTITCKASQNIDRYLNWYQQKPGKAPKRLIYNTNKLQTGVPSRFSGSGSGTEFTLTISSLQPEDFATYYCLQYNSLPLTFGQGTKLEIKSGGGGSIEPDSLEEGGGGSQVQLVQSGAEVKKPGSSVKVSCKASGYTFTRYTMHWVRQAPGQGLEWMGYINPSRGYTNYNQKFKDRVTITADKSTSTAYMELSSLRSEDTAVYYCARYYDDHYCLDYWGQGTMVTVSSVEGGSGGSGGSGGSGGVDDIQMTQSPSSLSASVGDRVTITCSASSSVSYMNWYQQKPGKAPKRLIYDTSKLASGVPSRFSGSGSGTEFTLTISSLQPEDFATYYCQQWSSNPFTFGQGTKVEIKHHHHHH
Regarding B3, the “maximum target cell death … to target ratio” value stood at 55.7%.

These data come from patent US20260176343A1 (UCL BUSINESS, published 2026).
